This data set in a line: soluble on expression in E. coli; label from the status in PepcDB or PDB records.
With “MSYEDWAGGIRCSECGREYTGIECPICRQADPTEREVVTEHGNGRGDQQPPENGTVSADSGVYDIDKIEHERHTDAEKVNPEVVDPSDYVTRAVSGVVFNKRHAWKAENRADEDNPPSLFVVTTADSEFNWIEIPLWDDAEGAMEDISIGDPIQAEGKLSKDNGVHNIHVHSQDSIDILTEPPEVKFDSMAIDQITSTTPKVDLEGTVERVGEIKDIQLDDEKVKLREIHVSDLNNDQIQVALWRTNAYEKVAPGDEIIIAGGLAKPHNEKVVVRVGWSGHIGYRSSLEHHHHHH”, the “soluble on expression in E. coli” value is “not soluble”.

On to “MTTELETSFADLGLSAPILSALTDLGYEKPSPIQLECIPHLLNGRDVLGMAQTGSGKTAAFGLPLLHNIKADLKSPQVLVLAPTRELAVQVAEALSSFSKHINGVNVVALYGGQRYDVQLRALRQGPQVVVGTPGRLLDHLKRGTLNLSNLSGLVLDEADEMLRMGFIEDVETIMAQIPAEHQTALFSATMPEAIRRITRRFMKEPQEVRIQSSVTTRPDISQSYWRVGGGYRKNEALVRFLEAEDFDAAIIFVRTKNATLEVAEALERSGYNSAALNGDMNQALREQTLERLKDGRLDILIATDVAARGLDVERISLVVNYDIPMDSESYVHRIGRTGRAGRAGRALLFVENRERRLLQNIERTMKLTIPEVELPNADLLSERRLAKFAAKVSQQLESSDLDMYRALLAKLQPEEEFDIETLAAALLKMAQGERPLILPPEAPRRPQREFNSRDDRGNDRGSRDRGDSRRDNRSDSRSADSRDGGERPARRERRDVGEMELYRIEVGRDDGVEVRHIVGAIANEGDISSRYIGNIKLFASHSTIELPKGMPGEMLSHFTRTRILNKPLNMQLLGDAQPHERRERPAGGNGGERRGGGRPFSGERREGAGAPPRRSFSGDRAPTGGGERRGNRDGQRSAAPRRDDAAAPAAAAAAPARRRFGDA”, for which the “soluble on expression in E. coli” value was “not soluble”.

“MAHHHHHHMKDYNVTMEVFVQEPDDYVQDQRLLEEILNLTAHQALEAINKPLHEGVLSLSGNVGTMKEKDTITPLARGKPNGVLTQVPTEARREAEERLRREEEERLGGTQEMKFTFSGTIEDVLFRGEFRYKEMKLNDFLLLRFGGRGVVATNRSVLLEEFFKEPARYVPGARVLNEIKITVRYLRIEGTVREEMDLEEVVRMLHHESVFPLSNGRNMKEMTQPLPLQGEN”: the “soluble on expression in E. coli” value is reported as “not soluble”.

Take “MGSDKIHHHHHHMKELFEFNNVSFSYKDVKEQALVDLNFSIKKGSLTLITGSSGSGKSTLLKLMNGLIPRLYDGKLVGEILFENNSLQSLTQESISKNIGYVSQDPRGQFFTTNTTSELVFSMENFGFTKEHMDKRINELAELLDLSNILDKNIFSLSSGERQKISIGCSLSLNSKLIILDEPSSNLDFQATKKLADLLCDLKNKGFTIVIAEHRFYYLKELIDQVLFVKNRTVKTTTIQLLKTENNNALRKFDIFNSSIEVPYIEKASADVLKVEEITYENILKDINFDVKVGDVIGLVGKNGVGKTTLLRILMKIIRPTKGKIIENKKNLSSPFLVMQEMDYQFFTESVRSELALGNEIVSKDQQEKILKKMELYKMKDQLPFDLSGGEKQRLLVSIASLSKTNLFLFDEPTSGLDYINMERIADLIKDLKEKGAVVIATHDPEFLYKICNRIIYLKNGGIKKDIKLRVEDSTLIEQIFNDITK”: the “soluble on expression in E. coli” value was “not soluble”.

As for “MGHHHHHHSHLPAIRTLQSLAFHPNVTFIIGENGTGKSTLLEGIAIALGFNAEGGTKNFRFSTNDSHSSLHEYLRISKSFNTPSDGFFLRAESFYNVASYIDEIDADLEARGNPVIDSYGGISLHEQSHGESFFSLFMNRFSGQGLYILDEPEAALSPMRQLSMLIRMHELAEQGSQFVIATHSPILMAYPESTIYSLTQEG”, the “soluble on expression in E. coli” value is “not soluble”.

Turning to “MGSDKIHHHHHHMLGDLLTTFFEVARQGSITTAARQLGVSQPTVTARIRQLEDVYGVELFYRRASRVDLSDVGVALMPVVEQLMQQESNADYLLRNAGNLRFGNLRIGATGPYYILRSVAAFRQRYPAVEVSIEIGNSQQMIEALLEYRIDAAVSSHAVDDSRLARIRLASDPMVLVVHPEHPFARMPHIDIARLAECHLLVREHGSMTRQATEAALAACGQELPRHMVIGSREAIYEAIRQNIGASVVPAGEVPRDPSLRIVPFAQRPPVIHEYLYCLESRRHTRLVGALLECVESLAPHQQAQAA”, the “soluble on expression in E. coli” value is recorded as “not soluble”.

For “MAHHHHHHMMRLSRLGVTAAAAAPSSFPLLQQLRGVRYANIQETLKPIPGQTAGQISILNEICCNPDAEEERRKPVFRAEVMPDAAAAAEEDNYLHTMHKWGYDSLTLFKKTNEDPGPWWNANASTLASNWSQVGDYANAGMWSGVWRYTYGIGEYNLRPYELRGRAWGRKDPKTGAVMIRYGKRSTSKPVQRLCFPHTKEHEQHHRIKNPANKDVKEISALHGKRILRELQYHLGQGLRFYLVDGVFGSDPGTATPYRIITDTPTHAYFASMAAIRTFNYVARQEVTLVKRLSQSPIDEWGWRRPGVLIYHAPSYDFESPRIVEEFGGPRPKDMGLSHNRFIATEPYSIPMKCAMGGEPSCDALLDSTAMLCGRWGFYADEKGYLTVPGESIMSKDGRSLTLVITGDEADADALRTSPQLYGSRHHRIANGVVSRAWDVVSMPACATGAKPLPTDIVEQDLQRVQRSLPTRMGLPHTLSHRHHGRRHVSEYGFKWPHNYTEDVSTKAYAGGHLFKAPKTDKLAGHQPRPSRFLMKDVDVVVIGEGVDAAAAVVSTLKDRGMLYAEEAPLKEAMATALKAAKSVKVVPRASSKVVLGKLTHV”, the “soluble on expression in E. coli” value was “not soluble”.

On to “MKLAIIIPVYNAEETIKRAILSVDTSVPYEIICINDGSTDQTQHVLTELQQKHPHIKVIHQSNQGAARSRNVGLEAMSEDVDAFLFLDADDEFLPSRIDLMVNAFNKNKETDVVIGQMARDVNGEWQVISTHQSMVKDAIVTLDRKPDILQSIGPGAKLFSSKYAGLRFDEDVVFCEEHTFIVKAFSKARDIQLIPNIVYGYNEREGSVTAQRADTFLPYMSDALKVRQRVMELLLLLDEKIYYSYRMDNLIVSYLIQAHLKKNNKITQSLLESVIEYMKAMQHTHYSGEAMFRIVRAVEQSATHWTKPLYLQWKKALSEVGIGRPGLIRFKLQVIPKKISFSGKESLKRIFKK”, for which the “soluble on expression in E. coli” value is “not soluble”.

“MSAEPHIVIIGGGFSGAAVAIELLRLAPNGVRVTLLEPRQSPGAGVAYSTAEPTHRINVPAARMQLAGDEEGAFDHWYRHQPAFAVDVQALRPDGSVYPQRGQFGRYVAQRFADAAASSGGRLRHLRDRALAFHQGTVTTDGGLQFKADLLVLAISHPPPSLPPQAEAWRHHPALIANPWQPGALDAIAPHARVAVMGTGLTMADTVVTLDRLGH”: the “soluble on expression in E. coli” value is on record as “not soluble”.

On to “MGSDKIHHHHHHVRIESIRTKNFKILKDTTIRNIPAMAIFLGANGSGKSTFFDIFGFLHDCLTDNVRAALLKRGGFKEVVSRGQSGPIEFEIKFRSAPGEPLVTYELHINLDDKGLPIVSKELLKYRRGQKGRPWHFLDFSNGVGHAIVNESEYGKPGVQEAREQQTLDSPDILAIKGLGQFQKYKQIASFRRLIEGWHVSDFRIESARSTNDAGYAEHLSATGDNLALVTQFMHEHYSDRFQQVLEKIAQRVPGIKSVEAKETADGRIVLRFQNEEFKDPFISRYVSDGTLKMFAYLILLYDPTPHPLLCIEEPENQLHPDLLLELAEEFRAYASNGGQVFISTHSPDFVNAVQLEELFWLCQGNNGFSKVVRASDEPLLQSLVAEGDLPGSLWKQGFFEGAGPL”, for which the “soluble on expression in E. coli” value is recorded as “not soluble”.

Turning to “MGSDKIHHHHHHMSLANRTTSSAYRLFNLRLESKTLLSPSLARCVFTGPEVRQMKLDAPDQRIKLLFASESGELTPMTVSDTWYQDYLALPRERRPILRTYTLRSVSRDLQQATIDFVLHGDTGPASSWAGHAKPGDALQIVAPNAEADGASGGYEWAPHDGVEQVLLIADETALPAAMGILEQLATQPSPPSVQAFFEVPKAADCVTPSDFPFAQIHWLPREETGSTIWGERLLYAVQQDVKIPASACINRDDIAQETPEDELLWERATAHRPFYAWVAGESSAIKRLRRYLLDERHLDKETINFMAYWSHR”, the “soluble on expression in E. coli” value is reported as “not soluble”.

Take “MSLHQRILSEVEGHILSGDWPPGYRIPFEHELTEQYGCSRMTVNKALSELVKRGLIERRRKSGSYVSFPQVQSAVMEIHDVKREVQSLGLDYAYRLGERAVRKMRAGDEGRIDLPVSSRLLDVTCRHFAGGRVFCLEERVINLSAVPEAETETFETAAPGSWLLGKVPWSTAEHRIRAVAASRPTAQALEIAVGAACLVIERRTWSGGVPVTSVLLTYPGDRHELVAEFAPSAPA”: the “soluble on expression in E. coli” value is “not soluble”.

(Values after the DeepSol protein solubility set.)
